Legend:
[1] = target: biotinylated Impβ1 (GST-fusion protein, biotinylated with sulfo-NHS-biotin) (UniProt P70168 1-876, biotin (sulfo-NHS-biotin reagent; sites not stated)); assay: AlphaScreen or HTRF
[2] = target: biotin-labelled calmodulin (CaM) (UniProt P0DP23 1-149, biotin (site not stated)); assay: AlphaScreen or HTRF

Chain of biotinylated Impβ1 (GST-fusion protein, biotinylated with sulfo-NHS-biotin) (P70168 whole entry, the tested form may be a part): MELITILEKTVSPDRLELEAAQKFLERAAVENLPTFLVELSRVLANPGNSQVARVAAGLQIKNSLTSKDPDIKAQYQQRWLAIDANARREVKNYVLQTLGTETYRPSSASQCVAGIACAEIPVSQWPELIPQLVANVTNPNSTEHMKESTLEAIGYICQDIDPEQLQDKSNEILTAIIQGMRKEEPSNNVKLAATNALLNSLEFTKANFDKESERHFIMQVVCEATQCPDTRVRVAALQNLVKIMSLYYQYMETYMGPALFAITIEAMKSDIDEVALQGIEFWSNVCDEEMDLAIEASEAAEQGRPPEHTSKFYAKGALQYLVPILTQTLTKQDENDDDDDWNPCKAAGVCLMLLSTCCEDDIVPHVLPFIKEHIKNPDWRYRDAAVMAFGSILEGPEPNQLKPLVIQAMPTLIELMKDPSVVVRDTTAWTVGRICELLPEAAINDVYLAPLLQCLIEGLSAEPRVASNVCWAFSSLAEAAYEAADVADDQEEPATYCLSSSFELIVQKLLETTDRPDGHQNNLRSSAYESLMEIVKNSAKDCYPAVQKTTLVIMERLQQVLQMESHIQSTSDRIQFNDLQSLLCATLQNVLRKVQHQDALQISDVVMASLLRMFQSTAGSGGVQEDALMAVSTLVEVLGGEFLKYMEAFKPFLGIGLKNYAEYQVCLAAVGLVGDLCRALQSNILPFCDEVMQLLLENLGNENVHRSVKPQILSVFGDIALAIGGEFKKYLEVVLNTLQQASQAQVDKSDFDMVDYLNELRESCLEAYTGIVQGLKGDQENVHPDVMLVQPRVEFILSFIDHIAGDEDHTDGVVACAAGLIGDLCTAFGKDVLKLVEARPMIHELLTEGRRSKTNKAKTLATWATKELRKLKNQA

| Binder | Kd [1] [nM] | Kd [2] [nM] |
| --- | --- | --- |
| His6-tagged GFP–SRY-HMG F67V (SRY residues 55–141) (domain or fragment) not shown | 1.09 | – |
| His6-tagged GFP–SRY-HMG M64T (SRY residues 55–141) (domain or fragment) not shown | 1.42 | – |
| His6-tagged GFP–SRY-HMG Y127C (SRY residues 55–141) (domain or fragment) not shown | 3.6 | 0.62 |

Further binders by falling Kd [1], results first:

| Kd [1] [nM] | Kd [2] [nM] | Binder |
| --- | --- | --- |
| 0.94 | 0.43 | His6-tagged GFP–SRY-HMG, wild type (SRY residues 55–141) (domain or fragment) not shown |
| 0.89 | – | His6-tagged GFP–SRY-HMG R76P (SRY residues 55–141) (domain or fragment) not shown |

From paper PMC2911679 (Biochemical Journal, 2010)
